Measurements taken from US20240018262A1.

How the values were obtained:
[1] = target: GPC3 expressed on hepatoma cell line HepG2 (human) (UniProt P51654); assay: flow cytometry on HepG2 cells, secondary antibody alone (background control); mean fluorescence
[2] = target: GPC3 expressed on hepatoma cell line HepG2 (human) (UniProt P51654); assay: flow cytometry on HepG2 cells, secondary antibody alone (background control); median fluorescence

GPC3 expressed on hepatoma cell line HepG2 (human), sequence (P51654 25-554 limits assumed): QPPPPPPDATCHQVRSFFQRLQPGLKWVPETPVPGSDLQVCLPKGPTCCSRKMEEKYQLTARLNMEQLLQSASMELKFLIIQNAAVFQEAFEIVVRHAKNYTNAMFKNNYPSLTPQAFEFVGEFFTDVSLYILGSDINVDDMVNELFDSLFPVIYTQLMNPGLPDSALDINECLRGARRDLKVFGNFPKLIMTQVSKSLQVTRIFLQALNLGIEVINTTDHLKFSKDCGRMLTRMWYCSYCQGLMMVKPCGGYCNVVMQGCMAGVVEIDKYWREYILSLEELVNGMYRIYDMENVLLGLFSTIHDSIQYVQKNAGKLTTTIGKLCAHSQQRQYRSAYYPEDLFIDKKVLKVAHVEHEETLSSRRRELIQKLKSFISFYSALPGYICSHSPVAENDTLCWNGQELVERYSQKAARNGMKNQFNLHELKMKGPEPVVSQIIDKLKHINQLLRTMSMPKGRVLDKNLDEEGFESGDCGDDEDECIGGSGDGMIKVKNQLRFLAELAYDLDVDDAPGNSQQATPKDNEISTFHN

“PE-conjugated goat anti-mouse IgG (Biolegend Inc., cat #405307) (antibody)” gave a Mean [1] of 243 and a Median [2] of 205.
